Test results from US20100035363A1.

What was measured:
[1] = molecular target: biotin-labeled RSV-IQN51 (Respiratory Syncytial Virus (F1 part)); experiment: time-resolved FRET competition, IQN51-APC/C39-Eu assay; competitor C39-Eu
[2] = molecular target: biotin-labeled RSV-IQN57 (Respiratory Syncytial Virus (F1 part)); experiment: time-resolved FRET competition, IQN57-APC/C45-Eu assay; competitor C45-Eu

Substance | IC50 [1] [µM] | IC50 [2] [µM]
HIV-C34 (peptide) | > 10 | > 10
HIV-T20 (peptide) | > 10 | > 10
